{
  "source": "patent US20020147151A1",
  "about": "(TRUSTEES OF BOSTON UNIVERSITY, published 2002)",
  "binders": {"B1": {"name": "35S-labeled murine rIL-16 (in vitro transcription and translation product, C-terminal 119 amino acids) (ligand, mouse, UniProt O54824 1204-1322, looked up)", "chain": "DSAASASAASDISVESKEATVCTVTLEKTSAGLGFSLEGGKGSLHGDKPLTINRIFKGTEQGEMVQPGDEILQLAGTAVQGLTRFEAWNVIKALPDGPVTIVIRRTSLQCKQTTASADS", "modifications": "[35S] methionine", "notes": "domain: C-terminal 119 amino acids; also called radiolabeled murine IL-16; 35S-labeled rIL-16"}},
  "target": "T1, native GST (UniProt P08515 1-218 = GST)",
  "T1 construct": "also called rGST; GST alone",
  "T1 sequence (P08515 whole entry)": "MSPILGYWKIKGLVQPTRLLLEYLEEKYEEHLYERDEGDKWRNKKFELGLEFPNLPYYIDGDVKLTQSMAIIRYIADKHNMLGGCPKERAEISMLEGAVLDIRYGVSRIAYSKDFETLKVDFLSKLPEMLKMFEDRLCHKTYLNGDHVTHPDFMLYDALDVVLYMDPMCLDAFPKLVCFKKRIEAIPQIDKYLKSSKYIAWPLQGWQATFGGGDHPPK",
  "test": "pull-down of 35S-labeled rIL-16 on GST-coated glutathione-Sepharose beads, autoradiography (control for non-specific binding)",
  "experimental": "Specificity of the interaction between rIL-16 and D3D4 was assessed by competition with an excess of unlabeled rIL-16. ³⁵S-labeled rIL-16 incubated with GST (lane 1); ³⁵S-labeled rIL-16 incubated with GST-D3D4 (lane 2); ³⁵S-labeled rIL-16 plus excess unlabelled rIL-16 incubated with GST-D3D4 (lane 3); ³⁵S-labeled rIL-16 plus 10 ug/ml peptide A (lane 4); ³⁵S-labeled rIL-16 plus 10 ug/ml peptide B (lane 5); ³⁵S-labeled rIL-16 plus 10 ug/ml peptide C (lane 6); ); ³⁵S-labeled rIL-16 plus 10 ug/ml peptide A and peptide B (lane 7). The arrow indicates the position of IL-16 on the gel. The identity of this band was re-confirmed by immunoblotting with anti-IL-16 antibody.\nTo investigate IL-16 interaction with the D3D4 of CD4, the GST-D3D4 fusion protein, or GST alone, was bound to the glutathione-conjugated Sepharose 4B beads. Five ul of the in vitro translation product containing ³⁵S-labeled rIL16 was added to 15 ul of the bead-bound proteins in 230 ul of PBS and 50 ul of NETN buffer (150 mM NaCl, 1 mM EDTA, 0.5% NP 40, and 50 mM Tris, pH 8.0). After incubating at 4° C. for 2 h, the beads were washed 3 times in NETN buffer. The GST-D3D4 or GST proteins were released from the beads by boiling in SDS gel loading buffer, and the supernatant was analyzed by 12% SDS-polyacrylamide gel electrophoresis (SDS-PAGE). The presence of ³⁵S-labeled mrIL16 was detected by autoradiography of the dried gel. […]",
  "data": [
    {"binder": "B1", "values": [
      {"measurement": "binding result", "result": "no binding"}
    ]}
  ]
}
